B1: FAM189A2 (parent)
chain: CALNALTTTVCLVAAALRYLQIFA
B2: ZNF511 (parent)
chain: EPLPVERDPAAGAAPFRFVARPVR

Variants of: B1
Test: protein stability index of a GFP-peptide fusion (GPS, HEK-293T) (PSI 1-6); higher = more stable
Settings: c terminus: a fixed tail appended
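Further: lentivirally expressed fusions sorted by FACS into six bins by GFP to DsRed ratio, PSI derived from sequencing read proportions per bin multiplied by bin number.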

Protein stability index: each site, then its substitutions
Y19: K 2.19, W 3.75, R 2.4, I 3.74, S 3.45, F 3.29, E 3.73, C 3.41, L 3.58, A 3.25, N 3.25, H 1.98, P 2.86, V 1.9
T7: K 1.87, Y 3.46, I 3.6, M 4.03, G 2.78, W 2.89, F 2.06, Q 3.37, N 3.42, D 2.18, S 2.85, R 2.34, P 3.27
A16: I 4.22, S 2.97, L 3.09, E 3.27, W 1.55, P 2.79, T 1.94, K 4.22, F 2.55, H 3.78, D 3.52, Y 2.27, V 3.33, N 2.1, R 3.06, C 4.04
R18: V 3.16, C 3.91, T 2.38, G 3.25, K 3.85, P 1.82, L 2.98, Y 3.89, E 3.6, Q 2.72, D 3.02, W 2.99, N 3.9, M 1.38, I 3.84
T9: P 3.2, I 2.68, F 2.07, C 2.34, H 2.19, V 3.39, N 2.79, S 3.11, Y 2.69, L 2.69, E 2.63, A 3.62, D 2.65, G 4.16, Q 3.59
F23: V 4.08, L 3.45, D 2.47, M 4.05, I 3.76, K 2.94, N 4.28, S 3.01, P 3.42, Y 2.85, R 3.81, E 3.61, Q 4.3, C 3.26, H 4.92, T 2.22, G 4.67
C11: A 3.95, S 2.18, P 2.3, L 3.18, F 3.1, Q 1.41, N 1.91, R 3.69, H 1.63, D 2.75, M 2.97, K 3.55, I 4.44, T 2.74, Y 3.58
L20: F 2.75, N 2.53, Q 3.06, R 3.02, I 2.76, T 3.88, M 3.29, K 3.6, V 1.72, G 2.41
T8: G 1.91, C 2.95, E 4.29, H 2.94, L 1.99, S 2.63, P 2.92, R 2.69, W 3.44, M 2.93, F 3.49, K 1.93, I 3.39, N 3.77, A 3.34
Q21: F 2.15, C 2.75, S 1.64, R 1.72, K 2.07, V 2.12, N 2.02, G 2.9, Y 3.35, A 3.09, T 3.12, W 2.74, L 3.19, I 2.65, E 3.35
A14: K 2.69, Q 2.2, F 3.14, W 1.93, E 3.46, M 3.17, S 4.79, I 3.7, R 2.23, V 1.9, L 3.6, G 2.74, T 3.07, C 4.5, N 3.17, H 4.41, P 3.27
L17: E 3.03, V 1.38, F 3.04, T 2.14, M 4.11, A 1.47, K 3.29, P 2.91, G 3.97, H 2.72, W 3.15, I 4.04, Q 2.57, N 3.87, C 3.24, Y 2.25
A24: T 3.23, F 2.59, H 3.64, G 4.19, L 2.63, P 2.09, D 2.51, M 2.65, S 4.25, W 2.96, C 3.96, E 2.8, V 3.43, I 2.19, Y 3.32, N 1.88
A15: L 2.19, M 3.68, S 3.48, I 3.05, Q 2.05, R 2.41, W 2.59, T 1.8, V 3.64, C 2.71, D 3.14, Y 3.03, H 2.6, N 3.15, K 2.76, G 2.9, F 4.15
V10: D 4.46, F 1.53, G 4.6, T 2.65, R 1.62, C 1.42, M 1.98, P 2.12, I 2.3, Q 4.03, N 2.53, S 4.12, K 2.08, A 2.46, L 3.21, E 3.04, H 3.15, W 2.05
L12: C 2.39, M 3.44, P 3.76, N 4.01, A 3.5, H 3.28, K 2.3, T 2.96, E 1.51, W 3.65, I 3.35, R 2.39, G 3.05, Y 3.88, F 2.56
V13: E 3.61, T 3, A 2.99, M 2.25, D 2.59, Q 2.8, R 3.73, L 2.8, P 2.88, N 2.88, Y 2.68, F 3.5, I 2.9, G 3.15, K 2.78, W 3.96, S 2.06
I22: R 2.16, K 2.14, L 2.83, A 1.99, Q 2.9, E 3.28, G 3.11, P 4.03, T 2.33, S 3.43, F 2.44, W 3.83, N 2.58, Y 2.44, M 3.76, H 2.75, V 2.72

Variants of: B2
Test: as above
Settings: c terminus: a fixed tail appended

Protein stability index of substitutions, site by site:
P2: H 2.12, S 2.84, C 2.08, V 2.03, E 2.23, Q 1.94, G 2.75, K 2.06, I 2.12, M 2.3, D 2.55, L 2.37, Y 2.45, F 1.72, N 1.99, A 2.66, W 1.8, T 2.1, R 2.36
E1: G 1.85, Y 1.77, W 2.35, D 2.73, C 2.64, V 2.27, M 2.38, R 2.39, L 2.69, N 2, F 2.85, H 2.2, I 2.12, P 2.23, Q 2.9, T 2.44, S 2.13, K 2.06, A 2.57
L3: Q 2.64, R 3.45, D 2.1, N 2.76, W 2.64, C 2.16, A 2.46, I 2.45, K 2.4, Y 2.26, M 2.28, H 2.56, E 2.97, T 2.3, F 2.01, V 2.23, S 3.09, G 2.23
